From patent US20140023641A1 (MERCK SERONO S A, published 2014)

How the values were obtained:
[1] = biological target: T1, macaca GM-CSF (rhesus, Macaca mulatta; cynomolgus, Macaca fascicularis, identical sequence) (Macaca mulatta / Macaca fascicularis, UniProt Q0MUT8 18-144 (Chlorocebus aethiops entry), limits assumed); experiment: KinExA, affinity in solution, average n = 2
T1 construct: also called macaca ortholog; Q9GL44_MACMU
T1 chain: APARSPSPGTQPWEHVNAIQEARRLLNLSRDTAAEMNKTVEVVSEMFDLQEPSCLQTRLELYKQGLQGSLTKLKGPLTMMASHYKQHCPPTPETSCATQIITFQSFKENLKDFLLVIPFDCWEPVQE
Procedure: (§1) The 4K21 and reference antibodies were incubated at concentration below the expected Kd with serial dilutions of human GM-CSF I117 or T117, or macaca GM-CSF up to equilibrium. The remaining free antibody was measured in a Kinetic exclusion assay with the KinExA® instrument. Kd was calculated by fitting the curve of the signal obtained versus the GM-CSF concentrations. The average of two experiments using different IgG concentrations was calculated.

[2] = biological target: T2, human GM-CSF T117 isoform (human, UniProt P04141 18-144); experiment: KinExA, affinity in solution, average n = 2
T2 construct: also called hGM-CSF (T117); hGM-CSF-T117
Procedure: as §1

[3] = biological target: T3, human GM-CSF I117 isoform (human, UniProt P04141 18-144); experiment: KinExA, affinity in solution, average n = 2
T3 construct: also called hGM-CSF (I117); hGM-CSF-I117
Procedure: as §1

[4] = biological target: T2, human GM-CSF T117 isoform; experiment: KinExA, affinity in solution; largest Kd ratio across the three GM-CSF targets, by Table 3 hGM-CSF T117 (174 pM) against hGM-CSF I117 (17 pM)
Procedure: as §1

[5] = biological target: T1, macaca GM-CSF (rhesus, Macaca mulatta; …); experiment: cell-based or functional assay
[6] = biological target: T2, human GM-CSF T117 isoform; experiment: cell-based or functional assay
[7] = biological target: T3, human GM-CSF I117 isoform; experiment: cell-based or functional assay
[8] = biological target: T3, human GM-CSF I117 isoform; experiment: TF-1 proliferation assay and KinExA
Procedure: To determine potency and affinity of the antibody, Kd measurements and a proliferation bioassay of TF-1 cells were performed. TF-1 is an erythroleukemic cell line from blood, which proliferates in response to e.g. GM-CSF. Kd determination was carried out with the Kinetic Exclusion Assay (KinExA®; Sapidyne Instruments, Inc., Boise, Id., USA).

[9] = biological target: T1, macaca GM-CSF (rhesus, Macaca mulatta; …); experiment: cell-based or functional assay
[10] = biological target: T2, human GM-CSF T117 isoform; experiment: cell-based or functional assay; remark: listed apart in the source
[11] = biological target: T3, human GM-CSF I117 isoform; experiment: cell-based or functional assay; remark: listed apart in the source
[12] = biological target: T1, macaca GM-CSF (rhesus, Macaca mulatta; …); experiment: cell-based or functional assay
[13] = biological target: T2, human GM-CSF T117 isoform; experiment: cell-based or functional assay; remark: listed apart in the source
[14] = biological target: T2, human GM-CSF T117 isoform; experiment: cell-based or functional assay; remark: listed apart in the source
[15] = biological target: T3, human GM-CSF I117 isoform; experiment: cell-based or functional assay; remark: listed apart in the source
[16] = biological target: T4, human GM-CSF A117 mutant (human, UniProt P04141 18-144); experiment: competition ELISA: antibody binding to coated human GM-CSF, soluble human GM-CSF A117 as competitor (one condition, concentration not given)
T4 construct: also called hGM-CSF A117
Source text: Detection of humanized parental anti-GM-CSF 4K21 binding to coated wild-type GM-CSF is competed away by soluble […]. Binding of all optimized 4K21 antibodies to the GM-CSF coated wells is not affected anymore by the presence of A117 protein in solution.

[17] = biological target: T1, macaca GM-CSF (rhesus, Macaca mulatta; …); experiment: KinExA, affinity in solution; largest Kd ratio across the three GM-CSF targets, by Table 3 macaca (11 pM) against hGM-CSF I117 (4 pM)
Procedure: as §1

B1: anti-GM-CSF 4K21 hIgG1 K antibody (MSB0010259), recombinant chimeric 4K21 (antibody, V domains shown)
VH: EVQLVESGGGLVKSGGSLKLSCAASGFAFSAYDMSWVRQTPEKRLELVAYISSGGSSFYYPDTVKGRFTISRDNAKNTLYLQMSSLKSEDTAMYYCTRHLGFDYWGQGTTLTVSS
VL: DVVMTQTPLSLPVSLGDQASISCRSSQSLVNSNGNTYLHWFLQKPGQSPKLLIYKVSNRFSGVPDRFSGSGSGTDFTLKISRVEAEDLGVYFCSQSTHVPPTFGGGTKLEIK
notes: Murine variable domains fused to human constant IgG1 heavy chain and kappa light chain domains; also called parental chimeric 4K21
- Kd [1]: 0.104 nM
- Kd [2]: 0.174 nM
- Kd [3]: 0.017 nM
- fold affinity difference between the 2 hGM-CSF isoforms and the macaca ortholog [4]: ≤ 10 fold
- Fold improvement of humanized parental 4K21 on macaca (TF-1 proliferation IC50) [5]: 0.7 fold
- Fold macaca/human I117 (TF-1 proliferation IC50) [5]: 9.3 fold
- IC50 (pM), inhibition of GM-CSF induced TF-1 proliferation (32 pM GM-CSF, average n = 3) [5]: 1220 pM
- Fold human T117/I117 (TF-1 proliferation IC50) [6]: 10.8 fold
- Fold improvement of humanized parental 4K21 on T117 (TF-1 proliferation IC50) [6]: 1 fold
- IC50 (pM), inhibition of GM-CSF induced TF-1 proliferation (32 pM GM-CSF, average n = 3) [6]: 1410 pM
- Fold improvement of humanized parental 4K21 on I117 (TF-1 proliferation IC50) [7]: 0.9 fold
- IC50 (pM), inhibition of GM-CSF induced TF-1 proliferation (32 pM GM-CSF, average n = 3) [7]: 130 pM
- fold preference for GM-CSF I117 versus T117 [8]: > 10 fold

B2: murine hybridoma-derived 4K21 antibody (antibody, V domains shown)
VH: EVQLVESGGGLVKSGGSLKLSCAASGFAFSAYDMSWVRQTPEKRLELVAYISSGGSSFYYPDTVKGRFTISRDNAKNTLYLQMSSLKSEDTAMYYCTRHLGFDYWGQGTTLTVSS
VL: DVVMTQTPLSLPVSLGDQASISCRSSQSLVNSNGNTYLHWFLQKPGQSPKLLIYKVSNRFSGVPDRFSGSGSGTDFTLKISRVEAEDLGVYFCSQSTHVPPTFGGGTKLEIK
notes: also called murine 4K21; murine monoclonal antibody 4K21
- fold preference for GM-CSF I117 versus T117 [8]: > 10 fold

B3: humanized parental anti-GM-CSF 4K21 VH3-07.1AL+VK2-A3.2 hIgG1 K antibody (MSB0010439) (antibody, V domains shown)
VH: EVQLVESGGGLVQPGGSLRLSCAASGFAFSAYDMSWVRQAPGKRLELVAYISSGGSSFYYPDTVKGRFTISRDNAKNSLYLQMNSLRAEDTAVYYCTRHLGFDYWGQGTLVTVSS
VL: DIVMTQSPLSLPVTPGEPASISCRSSQSLVNSNGNTYLHWYLQKPGQSPQLLIYKVSNRFSGVPDRFSGSGSGTDFTLKISRVEAEDVGVYYCSQSTHVPPTFGQGTKVEIK
notes: hIgG1 kappa; also called humanized parental 4K21 hVH hVL; humanized parental 4K21
- IC50 (pM), inhibition of GM-CSF induced IL-8 secretion in U937 cells (65 pM GM-CSF, n = 2) [9]: 1120 pM
- IC50 (pM), inhibition of GM-CSF induced IL-8 secretion in U937 cells (65 pM GM-CSF, n = 2) [10]: 930 pM
- IC50 (pM), inhibition of GM-CSF induced IL-8 secretion in U937 cells (65 pM GM-CSF, n = 2) [11]: 170 pM
- Kd [1]: 0.063 nM
- Kd [2]: 0.164 nM
- Kd [3]: 0.021 nM
- fold less efficient neutralization than on human GM-CSF (TF-1 proliferation assay) [12]: < 10 fold
- fold worse IC50 on T117 than on I117, CD11b upregulation in neutrophils [13]: 10 fold
- Emax (%), inhibition of CD11b upregulation on neutrophils [14]: 68%
- IC50 (nM), inhibition of CD11b upregulation on neutrophils [14]: 31.6 nM
- Emax (%), inhibition of CD11b upregulation on neutrophils [15]: 65%
- IC50 (nM), inhibition of CD11b upregulation on neutrophils [15]: 3.06 nM
- Fold improvement of humanized parental 4K21 on macaca (TF-1 proliferation IC50) [5]: 1 fold
- Fold macaca/human I117 (TF-1 proliferation IC50) [5]: 6.6 fold
- IC50 (pM), inhibition of GM-CSF induced TF-1 proliferation (32 pM GM-CSF, average n = 3) [5]: 793 pM
- Fold human T117/I117 (TF-1 proliferation IC50) [6]: 11.6 fold
- Fold improvement of humanized parental 4K21 on T117 (TF-1 proliferation IC50) [6]: 1 fold
- IC50 (pM), inhibition of GM-CSF induced TF-1 proliferation (32 pM GM-CSF, average n = 3) [6]: 1400 pM
- Fold improvement of humanized parental 4K21 on I117 (TF-1 proliferation IC50) [7]: 1 fold
- IC50 (pM), inhibition of GM-CSF induced TF-1 proliferation (32 pM GM-CSF, average n = 3) [7]: 121 pM
- fold preference for GM-CSF I117 versus T117 [8]: > 10 fold

B4: 4K21 hVH S55K-T62S hVL S27eY-N28I-H34S-N53R-H93F (MSB0010629) (antibody, V domains shown)
VH: EVQLVESGGGLVQPGGSLRLSCAASGFAFSAYDMSWVRQAPGKRLELVAYISSGGKSFYYPDSVKGRFTISRDNAKNSLYLQMNSLRAEDTAVYYCTRHLGFDYWGQGTLVTVSS
VL: DIVMTQSPLSLPVTPGEPASISCRSSQSLVNYIGNTYLSWYLQKPGQSPQLLIYKVSRRFSGVPDRFSGSGSGTDFTLKISRVEAEDVGVYYCSQSTFVPPTFGQGTKVEIK
notes: Tested as IgG ('optimized 4K21 IgGs'); the humanized parent is hIgG1 kappa; also called optimized 4K21 antibody with S27eY; 4K21 (4K21 VH S55K-T62S VL S27eY-N28I-H34S-N53R-H93F)
- IC50 (pM), inhibition of GM-CSF induced IL-8 secretion in U937 cells (65 pM GM-CSF, n = 2) [9]: 286 pM
- IC50 (pM), inhibition of GM-CSF induced IL-8 secretion in U937 cells (65 pM GM-CSF, n = 2) [10]: 354 pM
- IC50 (pM), inhibition of GM-CSF induced IL-8 secretion in U937 cells (65 pM GM-CSF, n = 2) [11]: 311 pM
- binding result [16]: binds
- Fold improvement of humanized parental 4K21 on macaca (TF-1 proliferation IC50) [5]: 19 fold
- Fold macaca/human I117 (TF-1 proliferation IC50) [5]: 1.5 fold
- IC50 (pM), inhibition of GM-CSF induced TF-1 proliferation (32 pM GM-CSF, average n = 3) [5]: 42 pM
- Fold human T117/I117 (TF-1 proliferation IC50) [6]: 1.6 fold
- Fold improvement of humanized parental 4K21 on T117 (TF-1 proliferation IC50) [6]: 32 fold
- IC50 (pM), inhibition of GM-CSF induced TF-1 proliferation (32 pM GM-CSF, average n = 3) [6]: 44 pM
- Fold improvement of humanized parental 4K21 on I117 (TF-1 proliferation IC50) [7]: 4.4 fold
- IC50 (pM), inhibition of GM-CSF induced TF-1 proliferation (32 pM GM-CSF, average n = 3) [7]: 28 pM

B5: 4K21 hVH S55K-T62S hVL N28I-H34S-N53R-H93F (MSB0010628) (antibody, V domains shown)
VH: EVQLVESGGGLVQPGGSLRLSCAASGFAFSAYDMSWVRQAPGKRLELVAYISSGGKSFYYPDSVKGRFTISRDNAKNSLYLQMNSLRAEDTAVYYCTRHLGFDYWGQGTLVTVSS
VL: DIVMTQSPLSLPVTPGEPASISCRSSQSLVNSIGNTYLSWYLQKPGQSPQLLIYKVSRRFSGVPDRFSGSGSGTDFTLKISRVEAEDVGVYYCSQSTFVPPTFGQGTKVEIK
notes: Tested as IgG ('optimized 4K21 IgGs'); the humanized parent is hIgG1 kappa; also called optimized 4K21 antibody; 4K21 (4K21 VH S55K-T62S VL N28I-H34S-N53R-H93F)
- IC50 (pM), inhibition of GM-CSF induced IL-8 secretion in U937 cells (65 pM GM-CSF, n = 2) [9]: 501 pM
- IC50 (pM), inhibition of GM-CSF induced IL-8 secretion in U937 cells (65 pM GM-CSF, n = 2) [10]: 181 pM
- IC50 (pM), inhibition of GM-CSF induced IL-8 secretion in U937 cells (65 pM GM-CSF, n = 2) [11]: 257 pM
- Kd [1]: 0.011 nM
- Kd [2]: 0.007 nM
- Kd [3]: 0.004 nM
- binding result [16]: binds
- Emax (%), inhibition of CD11b upregulation on neutrophils [14]: 97%
- IC50 (nM), inhibition of CD11b upregulation on neutrophils [14]: 1.98 nM
- Emax (%), inhibition of CD11b upregulation on neutrophils [15]: 84%
- IC50 (nM), inhibition of CD11b upregulation on neutrophils [15]: 1.65 nM
- fold affinity difference between the 2 hGM-CSF isoforms and the macaca ortholog [17]: < 3 fold
- Fold improvement of humanized parental 4K21 on macaca (TF-1 proliferation IC50) [5]: 11 fold
- Fold macaca/human I117 (TF-1 proliferation IC50) [5]: 3.9 fold
- IC50 (pM), inhibition of GM-CSF induced TF-1 proliferation (32 pM GM-CSF, average n = 3) [5]: 72 pM
- Fold human T117/I117 (TF-1 proliferation IC50) [6]: 1.2 fold
- Fold improvement of humanized parental 4K21 on T117 (TF-1 proliferation IC50) [6]: 63 fold
- IC50 (pM), inhibition of GM-CSF induced TF-1 proliferation (32 pM GM-CSF, average n = 3) [6]: 22 pM
- Fold improvement of humanized parental 4K21 on I117 (TF-1 proliferation IC50) [7]: 6.6 fold
- IC50 (pM), inhibition of GM-CSF induced TF-1 proliferation (32 pM GM-CSF, average n = 3) [7]: 18 pM
